The supplement of paper PMC10065799, “High-throughput profiling of sequence recognition by tyrosine kinases and SH2 domains using bacterial peptide display” (eLife, 2023)

What was measured:
Grb2 SH2 = Grb2 SH2 (UniProt P62993); assay: SH2 binding enrichment of the phosphorylated peptide, bacterial display (enrichment ratio); higher = better substrate or ligand; peptides without Tyr show the background
c-Src SH2 = assay: as above
SHP2-C SH2 = assay: as above
Hck = Hck (UniProt P08631); assay: phosphorylation enrichment, bacterial display (enrichment ratio); higher = better substrate or ligand; peptides without Tyr show the background
Chain of Hck (P08631 whole entry, looked up): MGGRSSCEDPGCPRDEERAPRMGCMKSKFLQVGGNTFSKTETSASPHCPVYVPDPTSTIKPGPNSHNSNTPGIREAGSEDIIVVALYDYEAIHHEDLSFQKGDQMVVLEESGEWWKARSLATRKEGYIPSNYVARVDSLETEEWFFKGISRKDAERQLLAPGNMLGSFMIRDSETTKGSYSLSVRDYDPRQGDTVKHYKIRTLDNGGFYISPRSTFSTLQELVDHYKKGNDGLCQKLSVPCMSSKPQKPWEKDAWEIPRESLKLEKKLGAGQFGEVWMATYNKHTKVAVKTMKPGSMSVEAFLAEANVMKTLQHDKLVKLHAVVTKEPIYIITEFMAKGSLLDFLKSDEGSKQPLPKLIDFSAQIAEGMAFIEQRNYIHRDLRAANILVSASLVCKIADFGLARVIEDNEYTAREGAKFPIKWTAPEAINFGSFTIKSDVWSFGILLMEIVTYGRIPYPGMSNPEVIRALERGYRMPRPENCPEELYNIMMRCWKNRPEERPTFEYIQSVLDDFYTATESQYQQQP

c-Src = assay: as above
Fyn = Fyn (UniProt P06241); assay: as above
Chain of Fyn (P06241 whole entry, looked up): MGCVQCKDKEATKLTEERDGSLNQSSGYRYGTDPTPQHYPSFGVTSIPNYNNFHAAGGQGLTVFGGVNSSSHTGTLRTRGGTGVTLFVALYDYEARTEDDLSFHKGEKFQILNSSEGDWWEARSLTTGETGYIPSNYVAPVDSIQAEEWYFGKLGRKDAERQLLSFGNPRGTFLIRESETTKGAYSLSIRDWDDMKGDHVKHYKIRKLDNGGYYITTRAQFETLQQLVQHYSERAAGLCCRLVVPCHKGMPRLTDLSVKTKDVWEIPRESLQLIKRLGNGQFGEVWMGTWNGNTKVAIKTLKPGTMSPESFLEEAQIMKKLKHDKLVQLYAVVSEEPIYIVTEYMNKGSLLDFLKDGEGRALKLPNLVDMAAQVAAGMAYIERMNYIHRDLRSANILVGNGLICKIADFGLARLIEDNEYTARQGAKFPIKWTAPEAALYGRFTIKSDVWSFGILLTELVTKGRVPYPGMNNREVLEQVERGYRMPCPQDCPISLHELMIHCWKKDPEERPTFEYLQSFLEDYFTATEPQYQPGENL

c-Abl (mouse) = assay: as above
Jak2 = Jak2 (UniProt O60674); assay: as above
Fes = Fes (UniProt P07332); assay: as above
Chain of Fes (P07332 whole entry, looked up): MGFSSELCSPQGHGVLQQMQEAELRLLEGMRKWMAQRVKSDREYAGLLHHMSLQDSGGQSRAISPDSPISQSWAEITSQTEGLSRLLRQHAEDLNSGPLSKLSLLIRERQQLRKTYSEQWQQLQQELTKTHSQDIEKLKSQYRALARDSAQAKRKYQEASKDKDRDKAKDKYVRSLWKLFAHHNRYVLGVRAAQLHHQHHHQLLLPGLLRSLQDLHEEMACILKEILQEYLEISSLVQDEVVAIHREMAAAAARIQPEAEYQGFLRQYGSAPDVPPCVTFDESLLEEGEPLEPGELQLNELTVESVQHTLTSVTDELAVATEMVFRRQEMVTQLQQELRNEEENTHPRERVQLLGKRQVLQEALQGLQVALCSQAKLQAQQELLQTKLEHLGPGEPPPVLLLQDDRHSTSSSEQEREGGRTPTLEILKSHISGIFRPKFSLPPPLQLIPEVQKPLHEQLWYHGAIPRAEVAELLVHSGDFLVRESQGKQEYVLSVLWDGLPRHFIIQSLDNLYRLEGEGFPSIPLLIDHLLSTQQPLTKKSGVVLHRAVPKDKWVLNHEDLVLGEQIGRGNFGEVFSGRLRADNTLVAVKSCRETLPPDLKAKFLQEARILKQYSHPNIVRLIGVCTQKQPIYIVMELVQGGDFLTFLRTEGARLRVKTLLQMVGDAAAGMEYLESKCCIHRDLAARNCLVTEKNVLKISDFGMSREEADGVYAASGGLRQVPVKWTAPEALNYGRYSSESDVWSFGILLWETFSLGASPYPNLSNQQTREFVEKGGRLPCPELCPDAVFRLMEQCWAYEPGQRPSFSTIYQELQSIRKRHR

EPHB1 = EPHB1 (UniProt P54762); assay: as above
FGFR3 = FGFR3 (UniProt P22607); assay: as above
EPHB2 = EPHB2 (UniProt P29323); assay: as above
Chain of EPHB2 (P29323 whole entry, looked up): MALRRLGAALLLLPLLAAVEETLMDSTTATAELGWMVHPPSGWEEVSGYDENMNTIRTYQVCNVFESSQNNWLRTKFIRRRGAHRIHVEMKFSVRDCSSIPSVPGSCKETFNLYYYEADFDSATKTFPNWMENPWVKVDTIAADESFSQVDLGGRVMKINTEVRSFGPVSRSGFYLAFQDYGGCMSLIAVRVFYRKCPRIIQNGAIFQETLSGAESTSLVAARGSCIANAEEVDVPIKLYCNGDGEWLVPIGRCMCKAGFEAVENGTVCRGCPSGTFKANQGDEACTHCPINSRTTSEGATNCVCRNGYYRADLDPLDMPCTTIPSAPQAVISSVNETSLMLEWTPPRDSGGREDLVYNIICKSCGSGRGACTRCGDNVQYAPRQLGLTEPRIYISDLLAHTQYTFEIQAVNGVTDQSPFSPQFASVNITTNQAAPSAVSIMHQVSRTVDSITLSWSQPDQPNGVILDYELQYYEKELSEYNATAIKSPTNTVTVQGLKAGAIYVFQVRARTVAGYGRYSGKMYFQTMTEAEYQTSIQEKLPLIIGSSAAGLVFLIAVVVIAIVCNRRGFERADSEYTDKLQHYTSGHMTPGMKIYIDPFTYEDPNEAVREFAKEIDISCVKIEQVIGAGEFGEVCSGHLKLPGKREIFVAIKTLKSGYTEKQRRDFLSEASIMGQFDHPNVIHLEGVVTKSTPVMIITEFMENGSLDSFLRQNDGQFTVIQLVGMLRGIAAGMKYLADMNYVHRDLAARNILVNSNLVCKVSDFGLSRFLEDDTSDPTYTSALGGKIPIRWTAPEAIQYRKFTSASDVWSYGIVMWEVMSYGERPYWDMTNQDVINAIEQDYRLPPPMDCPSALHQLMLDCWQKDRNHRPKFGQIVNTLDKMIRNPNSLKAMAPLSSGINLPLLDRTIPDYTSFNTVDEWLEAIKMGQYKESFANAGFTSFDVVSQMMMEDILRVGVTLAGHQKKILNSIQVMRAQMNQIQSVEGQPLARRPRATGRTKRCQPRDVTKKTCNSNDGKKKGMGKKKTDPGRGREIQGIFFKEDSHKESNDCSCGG

FGFR1 = FGFR1 (UniProt P11362); assay: as above
Chain of FGFR1 (P11362 whole entry, looked up): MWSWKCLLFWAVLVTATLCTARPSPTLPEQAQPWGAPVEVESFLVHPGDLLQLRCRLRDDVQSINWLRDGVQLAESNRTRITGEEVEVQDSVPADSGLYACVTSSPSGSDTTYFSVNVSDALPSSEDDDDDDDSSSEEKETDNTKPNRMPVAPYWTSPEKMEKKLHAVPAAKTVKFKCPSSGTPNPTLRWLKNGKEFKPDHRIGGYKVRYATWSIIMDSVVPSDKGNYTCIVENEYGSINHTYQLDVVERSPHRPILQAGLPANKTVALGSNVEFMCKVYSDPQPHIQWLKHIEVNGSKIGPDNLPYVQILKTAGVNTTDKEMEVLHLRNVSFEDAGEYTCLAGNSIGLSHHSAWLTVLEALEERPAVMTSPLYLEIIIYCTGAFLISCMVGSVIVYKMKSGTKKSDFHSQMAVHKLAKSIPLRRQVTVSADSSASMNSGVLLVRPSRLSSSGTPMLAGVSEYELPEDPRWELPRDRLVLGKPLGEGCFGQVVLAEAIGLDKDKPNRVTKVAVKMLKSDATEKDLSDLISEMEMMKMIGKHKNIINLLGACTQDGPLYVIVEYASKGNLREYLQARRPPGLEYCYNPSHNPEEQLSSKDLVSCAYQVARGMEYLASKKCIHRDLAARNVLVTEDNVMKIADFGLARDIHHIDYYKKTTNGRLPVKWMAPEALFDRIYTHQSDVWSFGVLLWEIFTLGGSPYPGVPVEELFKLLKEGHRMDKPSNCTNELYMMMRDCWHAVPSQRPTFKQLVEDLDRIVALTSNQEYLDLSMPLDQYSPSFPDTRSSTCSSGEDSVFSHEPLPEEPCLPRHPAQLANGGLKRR

MERTK = MERTK (UniProt Q12866); assay: as above
Chain of MERTK (Q12866 whole entry, looked up): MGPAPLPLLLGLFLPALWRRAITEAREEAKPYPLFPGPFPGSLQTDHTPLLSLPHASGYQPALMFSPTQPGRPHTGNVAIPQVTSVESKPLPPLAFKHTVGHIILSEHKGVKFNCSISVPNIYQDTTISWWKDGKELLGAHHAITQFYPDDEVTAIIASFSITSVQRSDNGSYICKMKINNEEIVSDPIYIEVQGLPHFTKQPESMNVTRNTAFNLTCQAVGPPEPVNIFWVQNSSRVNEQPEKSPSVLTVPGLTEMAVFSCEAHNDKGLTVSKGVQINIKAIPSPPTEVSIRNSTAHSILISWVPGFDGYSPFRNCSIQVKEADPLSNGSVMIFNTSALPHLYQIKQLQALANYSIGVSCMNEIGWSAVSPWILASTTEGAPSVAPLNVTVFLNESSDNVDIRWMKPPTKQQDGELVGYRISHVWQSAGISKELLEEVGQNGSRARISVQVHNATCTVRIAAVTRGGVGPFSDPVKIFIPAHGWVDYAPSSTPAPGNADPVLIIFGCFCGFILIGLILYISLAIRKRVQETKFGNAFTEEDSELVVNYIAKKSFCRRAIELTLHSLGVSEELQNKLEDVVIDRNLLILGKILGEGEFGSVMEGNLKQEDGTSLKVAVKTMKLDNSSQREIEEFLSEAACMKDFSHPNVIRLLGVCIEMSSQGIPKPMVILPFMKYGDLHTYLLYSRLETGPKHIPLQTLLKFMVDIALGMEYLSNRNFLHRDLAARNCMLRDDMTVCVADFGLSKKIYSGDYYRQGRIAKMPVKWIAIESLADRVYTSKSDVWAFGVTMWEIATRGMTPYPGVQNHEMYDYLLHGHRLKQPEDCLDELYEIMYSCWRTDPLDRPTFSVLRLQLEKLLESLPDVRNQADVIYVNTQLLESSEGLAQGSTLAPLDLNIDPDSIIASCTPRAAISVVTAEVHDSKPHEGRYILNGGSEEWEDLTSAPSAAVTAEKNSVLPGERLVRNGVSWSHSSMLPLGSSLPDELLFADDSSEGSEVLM

AncSZ = assay: as above
Fer (mouse) = assay: as above
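Throughout, for SH2 binding enrichment of the phosphorylated peptide, bacterial display: peptide library displayed on the E. coli surface as eCPX fusions, selected cells deep-sequenced, score is each peptide's frequency after selection divided by its frequency in the input.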
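Throughout, for phosphorylation enrichment, bacterial display: 11-residue human phosphosite peptides and single-mutation variants displayed on the E. coli surface, counted by deep sequencing, each peptide's frequency after selection divided by its frequency in the unselected input library; frequency after pTyr selection over input frequency; kinase dosed for 20-30% of maximal phosphorylation in three min.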

Chain of Grb2 SH2 (P62993 whole entry, looked up): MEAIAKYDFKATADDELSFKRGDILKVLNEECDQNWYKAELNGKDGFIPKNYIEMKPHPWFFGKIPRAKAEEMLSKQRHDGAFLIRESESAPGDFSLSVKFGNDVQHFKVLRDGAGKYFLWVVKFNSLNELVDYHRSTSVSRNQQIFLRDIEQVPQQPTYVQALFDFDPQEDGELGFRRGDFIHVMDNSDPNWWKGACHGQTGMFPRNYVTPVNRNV

Row | Sequence | SH2 binding enrichment (Grb2 SH2) | SH2 binding enrichment (c-Src SH2) | SH2 binding enrichment (SHP2-C SH2) | phosphorylation enrichment (Hck) | phosphorylation enrichment (c-Src) | phosphorylation enrichment (Fyn) | phosphorylation enrichment (c-Abl (mouse)) | phosphorylation enrichment (Jak2) | phosphorylation enrichment (Fes) | phosphorylation enrichment (EPHB1) | phosphorylation enrichment (FGFR3) | phosphorylation enrichment (EPHB2) | phosphorylation enrichment (FGFR1) | phosphorylation enrichment (MERTK) | phosphorylation enrichment (AncSZ) | phosphorylation enrichment (Fer (mouse))
1 | CSSGGYEPRGR [FUS_Y239_R234C] | 0.887 | 0.472 | 0.654 | 0.436 | 0.353 | 0.411 | 0.528 | 0.594 | 0.861 | 0.411 | 0.547 | 0.439 | 0.432 | 0.396 | 0.801 | 0.475
2 | CTNIHYNYMCN [TP53_Y234_T231N] | 1.05 | 5.66 | 1.86 | 0.437 | 0.408 | 0.464 | 1.62 | 0.799 | 0.82 | 0.734 | 0.62 | 0.537 | 0.468 | 0.418 | 0.754 | 0.522
3 | CTTIDYNYMCN [TP53_Y234_H233D] | 0.768 | 1.34 | 1 | 0.598 | 0.488 | 0.558 | 0.682 | 0.838 | 0.93 | 0.715 | 0.831 | 0.643 | 0.957 | 0.449 | 1.3 | 0.464
4 | CTTIHHNFMCN [TP53_Y234_Y234H_YF] | 1.36 | 1.36 | 0.933 | 0.436 | 0.362 | 0.453 | 0.478 | 0.606 | 0.844 | 0.482 | 0.641 | 0.51 | 0.525 | 0.377 | 0.713 | 0.483
5 | CTTIHYDFMCN [TP53_Y234_N235D_YF] | 1.2 | 6.1 | 2.73 | 0.656 | 0.545 | 0.644 | 0.704 | 0.873 | 1.03 | 0.681 | 0.764 | 0.514 | 0.544 | 0.49 | 1.16 | 1.05
6 | CTTIHYFFMCN [TP53_Y234_N235Y_YF] | 0.894 | 0.553 | 0.883 | 0.37 | 0.279 | 0.424 | 0.662 | 1.07 | 0.982 | 0.515 | 0.635 | 0.534 | 0.413 | 0.309 | 0.966 | 0.384
7 | CTTIHYNFLCN [TP53_Y234_M237L_YF] | 1.93 | 2.28 | 2.12 | 0.469 | 0.499 | 0.531 | 0.585 | 0.623 | 0.941 | 0.54 | 0.674 | 0.576 | 0.556 | 0.435 | 0.873 | 0.554
8 | CTTIHYNYMWN [TP53_Y234_C238W] | 1.11 | 0.874 | 1.18 | 0.544 | 0.496 | 0.569 | 0.824 | 0.966 | 1.32 | 1.12 | 0.976 | 0.746 | 1.21 | 1.82 | 1.21 | 1.77
9 | CTTNHYNYMCN [TP53_Y234_I232N] | 0.802 | 11 | 2.42 | 0.415 | 0.373 | 0.382 | 0.495 | 0.593 | 0.712 | 0.682 | 0.526 | 0.483 | 0.479 | 0.398 | 0.725 | 0.489
10 | DDDPEDRKFLE [UPF3B_Y160_Y160D] | 0.938 | 0.579 | 0.613 | 0.594 | 0.503 | 0.56 | 0.867 | 1.17 | 1.24 | 0.586 | 0.641 | 0.501 | 0.51 | 0.541 | 1.12 | 0.56
11 | DDFDLYGGEKF [PTPN11_Y66_Y62D_YF] | 0.569 | 0.426 | 0.545 | 3.11 | 2.14 | 2.27 | 0.731 | 1.2 | 1.38 | 0.639 | 0.727 | 0.659 | 0.585 | 0.475 | 1.28 | 1.72
12 | DEGVNYFMSKG [FBXO8_Y156] | 0.674 | 0.442 | 0.544 | 0.456 | 0.388 | 0.422 | 0.705 | 0.996 | 0.984 | 0.457 | 0.926 | 0.685 | 0.862 | 0.39 | 1.1 | 0.402
13 | DFLSSYSAVKQ [OAT_Y85_N89K] | 1.05 | 1.21 | 4.04 | 0.429 | 0.444 | 0.466 | 0.46 | 0.639 | 1.03 | 0.516 | 0.445 | 0.502 | 0.491 | 0.273 | 1.5 | 0.746
14 | DGTESYHTVSS [PLK1_Y462_L463H] | 0.769 | 1.61 | 0.755 | 0.436 | 0.423 | 0.433 | 0.552 | 0.52 | 0.682 | 0.342 | 0.872 | 0.514 | 0.558 | 0.299 | 0.569 | 0.348
15 | DGYIDYAEFAK [MCFD2_Y138] | 0.733 | 0.661 | 0.47 | 0.657 | 0.912 | 0.635 | 0.674 | 0.917 | 1 | 0.639 | 1 | 0.579 | 1.31 | 0.455 | 1.13 | 0.407
